B1: Mitochondrial import inner membrane translocase subunit TIM23 (Saccharomyces cerevisiae), P32897 (parent)
chain: MSWLFGDKTPTDDANAAVGGQDTTKPKELSLKQSLGFEPNINNIISGPGGMHVDTARLHPLAGLDKGVEYLDLEEEQLSSLEGSQGLIPSRGWTDDLCYGTGAVYLLGLGIGGFSGMMQGLQNIPPNSPGKLQLNTVLNHITKRGPFLGNNAGILALSYNIINSTIDALRGKHDTAGSIGAGALTGALFKSSKGLKPMGYSSAMVAAACAVWCSVKKRLLEK
partner: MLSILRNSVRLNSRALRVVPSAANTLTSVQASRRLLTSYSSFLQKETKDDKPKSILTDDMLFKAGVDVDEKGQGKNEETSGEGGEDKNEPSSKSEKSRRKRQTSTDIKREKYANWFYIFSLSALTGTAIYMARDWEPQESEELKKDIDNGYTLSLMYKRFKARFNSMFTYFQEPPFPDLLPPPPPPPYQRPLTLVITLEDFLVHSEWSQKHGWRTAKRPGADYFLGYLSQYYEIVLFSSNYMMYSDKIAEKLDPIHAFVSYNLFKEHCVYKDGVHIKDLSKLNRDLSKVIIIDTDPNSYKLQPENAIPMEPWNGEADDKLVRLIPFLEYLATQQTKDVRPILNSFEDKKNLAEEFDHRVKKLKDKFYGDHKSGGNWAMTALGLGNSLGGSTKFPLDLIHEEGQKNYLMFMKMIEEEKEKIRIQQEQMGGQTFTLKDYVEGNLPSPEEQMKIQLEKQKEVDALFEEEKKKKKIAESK

Variants of: B1
Details: with tim50_yeast TIM50, Q02776

Variant | effect of a mutation on the interaction
MSWLFGDKTPTDDANAAVGGQDTTKPKELSLKQSLGFEPNINNIISGPGGMHVDTARLHPLAGLDKGVEAADLEEEQLSSLEGSQGLIPSRGWTDDLCYGTGAVYLLGLGIGGFSGMMQGLQNIPPNSPGKLQLNTVLNHITKRGPFLGNNAGILALSYNIINSTIDALRGKHDTAGSIGAGALTGALFKSSKGLKPMGYSSAMVAAACAVWCSVKKRLLEK [Y70A;L71A] | disrupting interaction
